Like-named read-outs stand apart in the source and are kept apart here. Each block holds one binder with its values, some of them ahead of it.
How the values were obtained:
[1] = biological target: T1, Pituitary Adenylate Cyclase-Activating Polypeptide 38 (PACAP38) (Homo sapiens, C-terminal lysine is amidated); experiment: DELFIA TRF cell-surface binding: antibody pre-incubated with PACAP38, complex added to PAC1-R-expressing PC-12 cells, Eu anti-human IgG detection; PACAP38 held on the cell surface is the target
T1 construct: unlabeled peptide in SPR; also called human PACAP; huPACAP (1-38)
T1 peptide: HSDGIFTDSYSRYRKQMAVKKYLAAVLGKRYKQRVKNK

[2] = biological target: T1, Pituitary Adenylate Cyclase-Activating …; experiment: SPR, antibody immobilized
Protocol: (§1) Binding affinities of monoclonal antibodies for human PACAP were estimated using SPR on the PROTEON™ XPR36 (Bio-Rad, Hercules, Calif.). Antibody was immobilized to the surface of general amine coupling (“GLC” or “GLM”) Chips (Bio-Rad, Hercules, Calif.). […] Antigen (ranging from 1.23 nM to 100 nM) was typically run sequentially with association times of 2-4 minutes and dissociation times of 3-120 minutes grouped with the PROTEON™ Manager Software (v3.1.0.6 (Bio-Rad, Hercules, Calif.)) and fitted using a 1:1 Langmuir binding model.

[3] = biological target: T1, Pituitary Adenylate Cyclase-Activating …; experiment: cell-based or functional assay
[4] = biological target: T1, Pituitary Adenylate Cyclase-Activating …; experiment: cell-based or functional assay
[5] = biological target: T1, Pituitary Adenylate Cyclase-Activating …; experiment: cell-based or functional assay
[6] = biological target: T2, Pituitary Adenylate Cyclase-Activating Polypeptide 27 (PACAP27) (Homo sapiens, C-terminal leucine is amidated); experiment: cell-based or functional assay
T2 peptide: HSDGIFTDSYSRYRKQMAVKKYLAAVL

[7] = biological target: T3, Vasoactive Intestinal Peptide (VIP) (human); experiment: competitive HTRF: unlabelled VIP (10x) against biotinylated PACAP38 (35 nM) for the titrated antibody
T3 construct: also called human VIP
T3 peptide: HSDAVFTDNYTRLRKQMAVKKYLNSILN
Protocol: In parallel, 10 μl of an antibody dilution series (highest final concentration of 100 nM) were incubated with 10 μl of N-terminal or C-terminal biotinylated PACAP38 (35 nM final) alone, or in combination with either PACAP27 (350 nM final) or VIP (350 nM final), i.e., 10× PACAP27 or 10×VIP, respectively, in a HTRF plate. 20 μl of Eu³⁺ cryptate labeled anti-hu Fc donor and 20 μl of d2-labeled streptavidin acceptor were added to each well and incubated for 1 hour at room temperature. Fluorescence was measured at 620 and 665 nm with a delay of […].

[8] = biological target: T1, Pituitary Adenylate Cyclase-Activating …; experiment: DELFIA TRF cell-surface binding: antibody pre-incubated with PACAP38, complex added to PAC1-R-expressing PC-12 cells, Eu anti-human IgG detection; PACAP38 held on the cell surface is the target
[9] = biological target: T2, Pituitary Adenylate Cyclase-Activating …; experiment: SPR, antibody immobilized
Protocol: as §1

[10] = biological target: T1, Pituitary Adenylate Cyclase-Activating …; experiment: DELFIA TRF cell-surface binding: antibody pre-incubated with PACAP38, complex added to PAC1-R-expressing PC-12 cells, Eu anti-human IgG detection; PACAP38 held on the cell surface is the target
[11] = biological target: T1, Pituitary Adenylate Cyclase-Activating …; experiment: as above

B2: Ab10.H (antibody, V domains shown)
VH: EVQLVESGGGLVQPGGSLRLSCAASGIDLNSYYMTWVRQAPGKGLEWIGFIDAGGDAYYASWAKGRFTISRDNSKNTVYLQMNSLRAEDTAVYFCARDLDLWGQGTLVTVSS
VL: DAQLTQSPSTLSASVGDRVTITCQSSESVYGNYLAWFQQKPGKAPKFLIYEASKLESGVPSRFSGSGSGTEFTLTISSLQPDDFATYYCAGGDISEGVAFGGGTKVEIKR
- IC50, 1 nM PACAP38-induced human VPAC2-R mediated cAMP increase [3]: 988 pM
- IC50, 5 nM PACAP38-induced human VPAC1-R mediated cAMP increase [4]: 1340 pM
- IC50, 0.1 nM PACAP38-induced PAC1-R mediated cAMP increase [5]: 163 pM
- IC50, 0.1 nM PACAP27-induced PAC1-R mediated cAMP increase [6]: 84 pM

B5: Ab3.H (antibody, V domains shown)
VH: EVQLVESGGGLVQPGGSLRLSCAASGFSFSSSDYMCWVRQAPGKGLEWIGCIDAGSSGDTYFASSAKGRFTISRDNSKNTVYLQMNSLRAEDTAVYFCARHLYGSITFAFGLWGQGTLVTVSS
VL: AAQMTQSPSTLSASVGDRVTITCQASQSIGSDLAWYQQKPGKAPKLLIYDASTLASGVPSRFSGSGSGTEFTLTISSLQPDDFATYYCQGTYYSSGWYTAFGGGTKVEIKR
- EC50 (read off the curve) [8]: ~3000 pM

B6: Ab1 (antibody, human IgG1, kappa, N297A, V domains shown)
VH: QSVEESGGRLVTPGTPLTLTCTVSGFSLSSAVMNWVRQAPGKGLEWIGSIVASGTTYYASWANGRFTISKTSSTTMDLKMTSPTTEDTATYFCARGGGEFFIWGPGTLVTVSS
VL: DPVMTQTPSSTSAAVGGTVTISCQSSESVYSNYLSWYQQKPGQPPNFLIYQASNLASGVPSRFKGSGSGTQFTLTITDLECDDAATYYCAGGYSENIVGFGGGTEVVVKR
notes: full-length antibody, rabbit variable regions on human constant regions
- Kd [9]: ≤ 10 pM

B7: Ab4.H (antibody, V domains shown)
VH: EVQLVESGGGLVQPGGSLRLSCAASGFSLSSYDMSWVRQAPGKGLEWIGIINTNDDTWYASWVKGRFTISRDNSKNTLYLQMNSLRAEDTAVYYCARISDAYVFDYAYYFTLWGQGTLVTVSS
VL: DIQMTQSPSTLSASVGDRVTITCLASQNIYNSLAWYQQKPGKAPKLLIYRASTLASGVPSRFSGSGSGTEFTLTISSLQPDDFATYYCQQGAGADNIGNPFGGGTKVEIKR
- EC50 (read off the curve) [10]: ~4000 pM
- Kd [9]: 31 pM
- koff [9]: 1e-05 s⁻¹

B8: Ab5.H (antibody, V domains shown)
VH: EVQLVESGGGLVQPGGSLRLSCAASGFSLSSYAMIWVRQAPGKGLEWVGIIYDNGDTYYASSAKGRFTISRDNSKNTVYLQMNSLRAEDTAVYFCAREPGSTTQNDLWGQGTLVTVSS
VL: DVQMTQSPSTLSASVGDRVTITCQASENIYNSLLWYQQKPGKAPKLLIYRASTLASGVPSRFSGSGSGTEFTLTISSLQPDDFATYYCQNYYNIWTNGAAFGGGTKVEIKR
- EC50 (read off the curve) [11]: ~3000 pM

The next lines start with the values.

- EC50 (read off the curve) [1]: ~3000 pM
- Kd [2]: 26 pM
- koff [2]: 1e-05 s⁻¹
B1: Ab12.H (antibody, V domains shown)
VH: EVQLVESGGGLVQPGGSLRLSCAASGFSLSSYAMGWVRQAPGKGLEWIGDISTYGTTDYASWVYGRFTISRDNSKNTVYLQMNSLRAEDTAVYFCARDYWLSLWGQGTLVTVSS
VL: AAQLTQSPSTLSASVGDRVTITCQSSQSVYDNNALAWYQQKPGKAPKLLIYAASTLASGVPSRFSGSGSGTEFTLTISSLQPDDFATYYCLGGYYDPADNAFGGGTKVEIKR

- binding result [7]: no binding
B3: Ab3 (antibody, human IgG1, kappa, N297A, V domains shown)
VH: QEQLVESGGGLVQPEGSLTLTCTASGFSFSSSDYMCWVRQAPGKGLEWIGCIDAGSSGDTYFASWAKGRFTISKTSSTTVTLQMTSLTAADTATYFCARHLYGSITFAFGLWGQGTLVTVSS
VL: AAVLTQTPSPVSAAVGGTVTINCQASQSIGSDLAWYQQKPGQPPKLLIYDASTLASGVPSRFSGSGSGTQFTLTISGVQCDDAATYYCQGTYYSSGWYTAFGGGTEVVVKR
notes: as for B6

- binding result [7]: no binding
B4: Ab9 (antibody, human IgG1, kappa, N297A, V domains shown)
VH: EQSGGGAEGGLVKPGGSLKLSCKASGFTISRDYWICWVRQAPGKGLEWIGCISAGGGSTDYANWVNGRFTLSRDIDQSTGCLQLNSLTDADTAMYYCAGNLEIWGQGTLVTVSS
VL: AQVLTQTPSSVSAAVGGTVTINCQSSPSIYSGAFLSWFQQKPGQPPKFLIYEASKLASGVPSRFSGSGSGTQFTLTISDVQCDDAATYYCLGFYDCSSVDCHAFGGGTEVVVKR
notes: as for B6

From US20200079847A1 (H LUNDBECK A S, published 2020)
